Measurements taken from PMC11602133.
Several values for one entry are separate records, joined by “and”; a condition that tells them apart may be missing. Identical values can stand only once.

Legend:
[1] = molecular target: AGAMOUS (AG), in vitro produced (Arabidopsis) (UniProt P17839); test: native gel or EMSA; in vitro produced proteins (wheat germ TnT) mixed with a DY-682 labelled ~100 bp DNA probe containing a CArG-box (SAUR10 probe); protein complexes read from the shifted bands on DNA; anti-FLAG antibody added for supershift where FUL-FLAG was used
[2] = molecular target: SUPPRESSOR OF OVEREXPRESSION OF CONSTANS 1 (SOC1), in vitro produced (Arabidopsis) (UniProt O64645); test: as above

Sequence of UniProt O64645 (O64645 whole entry): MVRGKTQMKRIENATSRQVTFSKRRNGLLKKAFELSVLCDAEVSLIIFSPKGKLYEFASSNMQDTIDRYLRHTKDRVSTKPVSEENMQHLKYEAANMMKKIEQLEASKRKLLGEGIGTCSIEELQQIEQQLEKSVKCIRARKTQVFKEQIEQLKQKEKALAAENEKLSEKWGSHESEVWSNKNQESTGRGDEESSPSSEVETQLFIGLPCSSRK
Sequence of AGAMOUS (AG), in vitro produced, P17839 1-252 (natural protein; other documents disagree on this pair) (P17839 whole entry): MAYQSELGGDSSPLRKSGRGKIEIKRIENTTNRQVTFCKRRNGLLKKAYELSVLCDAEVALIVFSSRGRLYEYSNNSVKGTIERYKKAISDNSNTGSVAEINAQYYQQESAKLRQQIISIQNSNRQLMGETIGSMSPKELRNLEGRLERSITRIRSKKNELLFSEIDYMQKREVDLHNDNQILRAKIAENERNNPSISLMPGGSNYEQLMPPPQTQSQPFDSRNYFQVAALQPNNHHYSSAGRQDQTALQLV

| stoichiometry N [1] | stoichiometry N [2] | Substance |
| --- | --- | --- |
| 2 |  | AGAMOUS (AG), in vitro produced, P17839 1-252 (natural protein; other documents disagree on this pair) |
|  | 2 and 4 | SUPPRESSOR OF OVEREXPRESSION OF CONSTANS 1 (SOC1), in vitro produced (from UniProt O64645 1-214) (natural protein) |
